Measurements from the supplement of paper PMC10567573.

B1: GMCL1 (parent)
chain: RPDTGDDAAGHGFCYCAGSHKRKR
B2: CDKN1A (parent)
chain: RRQTSMTDFYHSKRRLIFSKRKP

Variants of: B1
Assay: protein stability index of a GFP-peptide fusion (GPS, HEK-293T) (PSI 1-6); higher = more stable
Conditions: c terminus: a fixed tail appended
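Note: lentivirally expressed fusions sorted by FACS into six bins by GFP to DsRed ratio, PSI derived from sequencing read proportions per bin multiplied by bin number.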

Protein stability index, by site and new letter:
S19: N 3.31; A 3.62; I 2.96; T 3.65; K 3.78; P 2.45; M 2.52; C 3.82; Y 2.53; W 2.45; F 2.63; L 2.82; H 2.77; G 3.14; R 3.26; V 2.72; Q 3.16; E 2.98; D 2.86
K23: D 3.33; G 2.9; W 1.95; L 2.16; E 2.94; H 3.1; M 2.32; C 3.71; A 2.2; P 2.84; Y 2.22; V 2.33; S 3.12; F 1.9; N 3.03; R 2.37; I 3.04; Q 2.92; T 2.18
C14: A 4.73; V 4.3; E 4.99; R 4.87; Y 4.88; P 4.31; K 4.98; W 3.82; D 4.75; N 4.62; L 3.66; T 4.89; S 5.02; G 4.85; H 4.7; Q 4.7; I 4.3; F 3.88; M 4.9
G12: Y 2.71; L 2.38; M 2.79; T 3.62; V 3.73; N 3.14; W 2.36; S 2.88; P 3.1; R 3.11; Q 3.16
Y15: A 3.12; D 3.36; C 2.68; W 2.82; H 2.98; F 2.6; L 2.84; P 3.36; I 3.09; T 2.51; R 3.41; G 3.35; N 2.43; Q 2.74; K 2.5; E 2.77; M 2.89; S 2.77; V 2.8
K21: M 2.65; D 3.15; R 2.67; G 2.39; A 3.07; Q 2.79; P 3.03; W 2.29; I 2.01; S 2.34; V 2.79; T 2.74; C 3.23; H 2.35; E 2.57; N 2.83; F 2.52; L 2.69; Y 2.11
A17: N 3.61; Y 3.25; R 2.9; W 3.01; Q 3.02; I 2.97; G 2.9; D 3.68; E 3.61; F 2.2; M 2.99; H 2.29; K 2.82; S 2.77; C 2.05; L 2.59; V 2.56; T 3.13; P 3.7
C16: Y 4.09; I 4.57; K 4.81; M 4.17; F 4.72; S 4.97; E 5.33; N 4.56; V 4.72; H 3.87; D 5.04; R 4.59; Q 4.92; W 4.36; L 4.11; T 4.74; A 4.94; P 4.71; G 4.85
G18: T 3.53; P 3.53; F 2.7; E 3.6; V 2.75; N 2.85; K 3.58; I 2.9; C 2.77; W 2.09; S 3.36; Q 3.12; M 2.71; H 2.53; L 2.66; R 3.29; Y 2.98; A 3.24; D 2.84
H20: K 4.09; P 2.85; T 3.05; W 2.62; R 3.31; Q 3.59; N 3.04; A 3.15; C 3.26; F 3.24; I 3.9; V 2.79; S 3.95; Y 3.12; G 3.41; D 3.35; L 3.18; E 3.3; M 3.03
F13: D 3.82; R 2.94; M 3.25; A 3.12; T 3.34; N 3.4; K 3.35; S 2.84; C 2.19; L 2.87; H 3.86; Q 3.9; W 3.45; E 3.99; I 3.02; P 3.55; G 3.69; Y 2.65; V 3.55
R24: T 3.04; P 3.94; S 3.47; V 3.38; D 4.3; E 3.64; N 3.84; Q 3.35; I 3.33; K 3.65; C 4.32; W 2.87; G 3.4; F 3.18; H 4.13; A 3.53; L 2.66; M 2.77; Y 3.75
R22: Q 2.66; E 3.56; F 1.96; L 2.57; S 2.77; Y 2.01; A 2.76; W 2.6; N 2.62; M 2.12; G 2.43; C 3.59; D 3.55; K 3.08; P 2.79; H 2.56; V 2.65; T 2.64; I 3

Variants of: B2
Assay: as above
Conditions: c terminus: native

Protein stability index of substitutions, site by site:
R2: M 4.02; A 2.1; S 1.11; V 2.74; G 3.55; W 2.28; N 3.28; P 3.33; I 2.89; L 1.97; K 1.75; D 2.5
M6: L 2.93; W 2.56; A 2.57; K 3.44; I 2.14; H 2.36; Y 1.92; N 3.37; F 2.03; P 1.34; D 1.96
R1: F 3.44; Y 2.74; E 3; V 2.34; G 1.02; S 2.99; T 3.87; W 2.69; K 2.57; A 1.71; M 2.04; N 2.77; Q 1.72; I 1.98; L 1.96
D8: K 3.12; L 2.32; S 2.95; G 2.29; F 3.24; P 2.14; E 3.76; M 2.65; R 1.14
S5: G 3.9; A 3; C 1.67; L 2.69; M 2.73; E 2.5; K 2.87; Y 2.19; R 2.53; P 1.9; V 2.27; D 2.95; Q 2.55; N 1.73; F 1.93; H 3.12; T 2.38
T4: L 2.1; A 2.23; Y 2.22; F 2.21; W 4.11; P 2.86; C 2.33; S 2.62; K 2.26; E 3.64; V 3.23; R 1.8
Q3: F 2.24; S 2.27; T 2.71; L 4.67; K 2.72; R 2.49; G 3.86
T7: C 1.94; N 3.04; F 2.06; L 1.8; Q 2.1; W 1.87; S 2.44; H 2.4; E 3.61; R 1.87; K 2.19; Y 1.79
